Laboratory results from IntAct's records for PubMed 17446860.

B1: Vacuolar-sorting protein BRO1 (Saccharomyces cerevisiae), P48582 (parent)
chain: MKPYLFDLKLKDTEKLDWKKGLSSYLKKSYGSSQWRTFYDEKATSELDHLRNNANGELAPSSLSEQNLKYYSFLEHLYFRLGSKGSRLKMDFTWYDAEYSSAQKGLKYTQHTLAFEKSCTLFNIAVIFTQIARENINEDYKNSIANLTKAFSCFEYLSENFLNSPSVDLQSENTRFLANICHAEAQELFVLKLLNDQISSKQYTLISKLSRATCNLFQKCHDFMKEIDDDVAIYGEPKWKTTVTCKLHFYKSLSAYYHGLHLEEENRVGEAIAFLDFSMQQLISSLPFKTWLVEFIDFDGFKETLEKKQKELIKDNDFIYHESVPAVVQVDSIKALDAIKSPTWEKILEPYMQDVANKCDSLYRGIIPLDVYEKESIYSEEKATLLRKQVEETETANLEYSSFIEFTNLPRLLSDLEKQFSDGNIFSNTDTQGQLMRDQIQTWCKFIQTNEFRDIEEQMNKIVFKRKQILEILSALPNDQKENVTKLKSSLVAASNSDEKLFACVKPHIVEINLLNDNGKIWKKFDEFNRNTPPQPSLLDIDDTKNDKILELLKQVKGHAEDLRTLKEERSRNLSELRDEINNDDITKLLIINKGKSDVELKDLFEVELEKFEPLSTRIEATIYKQSSMIDDIKAKLDEIFHLSNFKDKSSGEEKFLEDRKNFFDKLQEAVKSFSIFASDLPKGIEFYDSLFNMSRDLAERVRVAKQTEDSTANSPAPPLPPLDSKASVVGGPPLLPQKSAAFQSLSRQGLNLGDQFQNLKISAGSDLPQGPGIPPRTYEASPYAATPTMAAPPVPPKQSQEDMYDLRRRKAVENEERELQENPTSFYNRPSVFDENMYSKYSS
partner: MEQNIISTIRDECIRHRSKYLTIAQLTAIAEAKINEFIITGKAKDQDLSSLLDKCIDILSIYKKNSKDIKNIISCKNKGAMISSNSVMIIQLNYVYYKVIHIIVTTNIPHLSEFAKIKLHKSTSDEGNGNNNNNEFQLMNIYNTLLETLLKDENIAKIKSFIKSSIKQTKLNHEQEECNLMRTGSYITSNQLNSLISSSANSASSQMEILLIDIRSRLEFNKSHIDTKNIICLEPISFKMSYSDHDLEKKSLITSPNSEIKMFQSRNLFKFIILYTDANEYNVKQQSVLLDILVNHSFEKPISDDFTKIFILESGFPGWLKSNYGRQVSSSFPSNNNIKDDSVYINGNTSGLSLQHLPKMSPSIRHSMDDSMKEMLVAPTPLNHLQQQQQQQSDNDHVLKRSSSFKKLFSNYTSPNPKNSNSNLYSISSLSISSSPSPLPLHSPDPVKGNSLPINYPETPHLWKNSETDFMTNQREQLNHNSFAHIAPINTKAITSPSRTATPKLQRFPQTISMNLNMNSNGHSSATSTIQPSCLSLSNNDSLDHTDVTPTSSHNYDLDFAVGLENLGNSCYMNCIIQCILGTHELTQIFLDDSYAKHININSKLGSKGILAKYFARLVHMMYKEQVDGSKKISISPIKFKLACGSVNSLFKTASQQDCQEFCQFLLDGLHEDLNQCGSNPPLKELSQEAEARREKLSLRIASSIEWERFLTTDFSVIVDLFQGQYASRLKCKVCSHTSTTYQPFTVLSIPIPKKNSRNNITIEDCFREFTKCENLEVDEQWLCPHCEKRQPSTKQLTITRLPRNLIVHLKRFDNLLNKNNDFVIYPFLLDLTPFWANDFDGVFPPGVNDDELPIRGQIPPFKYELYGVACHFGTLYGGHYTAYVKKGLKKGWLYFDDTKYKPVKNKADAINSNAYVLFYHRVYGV
B2: Ubiquitin carboxyl-terminal hydrolase 4 (Saccharomyces cerevisiae), P32571 (parent)
chain: B1 partner
partner: B1 chain

Variants of: B1
Settings: with ubp4_yeast DOA4, P32571

**Q.** With F834A as the variant, how does the “effect of a mutation on the interaction” value read?
**A.** disrupting interaction

Variants of: B1
Settings: with ubp4_yeast DOA4, P32571
Remark: another data set of the same source

**Q.** With P831A as the variant, how does the “effect of a mutation on the interaction” value read?
**A.** disrupting interaction

Variants of: B1
Settings: with ubp4_yeast DOA4, P32571
Remark: another data set of the same source

**Q.** How did the “effect of a mutation on the interaction” value turn out when S832A was run?
**A.** disrupting interaction

Variants of: B1
Settings: with ubp4_yeast DOA4, P32571
Remark: another data set of the same source

**Q.** Which “effect of a mutation on the interaction” value does the source give for V833A here?
**A.** disrupting interaction

Variants of: B2
Settings: with bro1_yeast BRO1, P48582

**Q.** L830A was tested. Which “effect of a mutation on the interaction” value did it give?
**A.** disrupting interaction

Variants of: B2
Settings: with bro1_yeast BRO1, P48582
Remark: another data set of the same source

**Q.** Which “effect of a mutation on the interaction” value does the source give for Y826A here?
**A.** disrupting interaction

Variants of: B2
Settings: with bro1_yeast BRO1, P48582
Remark: another data set of the same source

**Q.** How did the “effect of a mutation on the interaction” value turn out when P827A was run?
**A.** disrupting interaction

Variants of: B2
Settings: with bro1_yeast BRO1, P48582
Remark: another data set of the same source

**Q.** Which “effect of a mutation on the interaction” value does the source give for V824A here?
**A.** disrupting interaction

Variants of: B2
Settings: with bro1_yeast BRO1, P48582
Remark: another data set of the same source

**Q.** For L829A, which “effect of a mutation on the interaction” value is on record?
**A.** disrupting interaction

Variants of: B2
Settings: with bro1_yeast BRO1, P48582
Remark: another data set of the same source

**Q.** I825A was tested. Which “effect of a mutation on the interaction” value did it give?
**A.** decreasing interaction
